Results on one substance are retold here after patent publication US5705355A, “Hirudin, pharmaceutical compositions comprising it and their use” (Transgene, S.A., priority 1984, dated 1998).

Where two headings read alike, the source gives them in different places.

Series [1] can be described thus: heat / acid-heat treatment (70° C., pH 2.8, 15 min), antithrombin activity afterwards. The class given is physicochemical. The method, then: In order to characterize the hirudin obtained from E. coli, analysis was performed directly on culture samples after induction, which were heated to 70° C. for 15 min or heated to 70° C. after reduction of the pH to 2.8 with HCl.
In the latter case, the pH of the extract was brought back to neutral before being assayed. […] This can reflect either the degradation or the inactivation of constituents of the extract which inhibited the action of hirudin, or possibly the rather low pH and the heating stage may, in some cases, provide for a more complete reforming of the disulfide bridges which are needed for hirudin to show maximum activity. […]
When the labeled materials from non-induced PTG718 cultures and from cultures at 3 and 5 hours after induction are treated at 70° C. and at pH 2.8 for 15 min, centrifuged to remove the denatured proteins and analyzed on an SDS-polyacrylamide gel, it is clear that the bulk of the labeled E. coli proteins are removed from the sample (FIG. 9-- lanes 1 and 2). […]
Another portion, is adjusted to pH 2.8 with dilute HCl, and then heated to 70° C. for 15 minutes. […] The supernatant is neutralized by adding dilute NaOH and the antithrombin activity is then measured. After the small modifications in volume due to the acidification and neutralization are taken into account, it can be calculated that 100% of the original activity survives this acid/heat treatment. […]

Series [2] has as its target T1, thrombin (Homo sapiens, UniProt P00734). Conditions: cited from earlier work.
The target of series [3] is T1, thrombin. The settings on record: first estimate; read-out: dissociation constant of the 1:1 thrombin-hirudin complex; cited from earlier work.
For series [4], the system named is plasmin, chymotrypsin A, trypsin, papain, pepsin, subtilopeptidase A. Conditions: cited from earlier work.
The next series relates to DIC. Conditions: rat, in vivo; cited from earlier work.
A further series deals with mice. Conditions: cited from earlier work.
A further series deals with rabbits. The settings on record: intravenously and subcutaneously; cited from earlier work.
Series [5] deals with rats, dogs, rabbits and mice. Conditions: in vivo, iv; cited from earlier work.
The conditions of series [6]: in vivo; cited from earlier work.

One may read the LD50 as the dose at which mortality reaches 50%. Consider hirudin, for which the “resistance to heat treatment under conditions of quite low pH” value in series [1] is given as “resistance to heat treatment”. Further, the “loss in activity after heat or acid/heat treatment” value in series [1] (70° C. for 15 min, or 70° C. after reduction of the pH to 2.8) is recorded as “no loss in activity”. The specific activity is reported as 10,400 U/mg with thrombin [2] (after further stages of purification), 6,500 anti-thrombin units per milligram in the series with thrombin [2] (hirudin extracted from whole leeches) and 8,500 units per milligram in the series with thrombin [2] (purified approximately 650 times from heads of leeches). Moreover, the “activity relative to the initial hirudin activity” value at thrombin [2] (sulfate ester (Tyr 63) made to disappear completely) is 55%. Moreover, the Kd at thrombin [3] was 0.08 nM. For the same substance, the “hirudin activity on digestion with chymotrypsin A” value in [4] (chymotrypsin A) is “resisted”. Moreover, the “hirudin activity on digestion with papain” value in series [4] (papain) was “sensitive”. Besides, the “hirudin activity on digestion with pepsin” value in series [4] (pepsin) was “sensitive”. For the same substance, the “hirudin activity on digestion with plasmin” value in series [4] (plasmin) is “resisted”. Moreover, the “hirudin activity on digestion with subtilopeptidase A” value in series [4] (subtilopeptidase A) is “sensitive”. Further, the “hirudin activity on digestion with trypsin” value in series [4] (trypsin) was “resisted”. In addition, the “treating DIC compared with heparin” value in the series on DIC was “far superior to heparin”. Further, the LD50 in the series with mice was > 500,000 U/kg of body weight; with mice (same value expressed by weight), above 60 mg/kg. Further, the tolerated dose result was “up to 1 g per kg” in the series on mice and “up to 10 mg/kg” with rabbits. Moreover, the sensitization reactions result in the series on mice (repeated injections over a period of two weeks) is “do not lead to sensitization reactions”. Further, in series [5], the tolerance result is “well tolerated”. Moreover, the elimination result in series [6] was “rapidly eliminated”.
